Data set [1] is described as follows: Pharmacokinetics: serum BNP levels after intra-renal (IR) versus intravenous (IV) BNP administration in the canine model. It counts as in vivo. As to conditions: for difference between serum BNP levels with IR versus IV infusion at comparable time points: higher with IV. How it is done: (§1) IR versus IV administration of human recombinant BNP (Natrecor® agent, Scios, Inc., Johnson & Johnson) was compared in the canine model (two animals). IR infusion was achieved using the FlowMedica Benephit™ Infusion System (FlowMedica, Inc.). IV and IR administration was performed in each animal sequentially, and the administration periods were separated by five days to allow for washout and re-acclimation of the animals. IV administration was conducted on the first day in both animals. Other than the route of BNP administration, all other parameters were identical between the IV and IR administration days in both dogs.
(§2) Canine #1 received a 2 mcg/kg/min bolus of BNP followed immediately by a 0.15 mcg/kg/min BNP infusion for 90 minutes, followed by a 2-hour washout period. Then vasoconstriction was induced via phenylepherine until mean arterial pressure (MAP) was increased by approximately 30% (approximately 1 hour), and then BNP was again administered at 0.15 mcg/kg/min for 90 minutes.
Canine #2 received a 2 mcg/kg/min BNP bolus followed immediately by a 4-hour continuous infusion of BNP at 0.15 mcg/kg/min.
(§3) Key endpoints included serum levels of BNP (pharmacokinetics, both animals) following IR and IV BNP administration, and blood pressure response in response IR and IV BNP administration (Canine #1 only).

In data set [2] the test system is canine model. Description: Blood pressure (mean arterial pressure) response to IR and IV BNP during phenylepherine-induced vasoconstriction. The class given is in vivo. The settings on record: Canine #1, constricted vascular state induced by phenylepherine. How it is done: as §1, §2, §3

The values below come from US7585836B2, “Bi-lateral local renal delivery for treating congestive heart failure and for BNP therapy” (priority 2004, dated 2009).

Where “and” joins values, the source holds several entries; their conditions need not be identical. Identical values can stand only once.

For the substance nesiritide [BNP], the “difference between serum BNP levels with IR versus IV infusion at comparable time points” value in data set [1] (Canine #1, 2 mcg/kg/min bolus then 0.15 mcg/kg/min infusion) is 75% and 66%; in data set [1] (Canine #2, 2 mcg/kg/min bolus then 4-hour infusion at 0.15 mcg/kg/min), 61% and 69%. Moreover, in data set [1] (both canines, same dose), the “lower systemic levels with IR than with IV administration of the same dose” value is recorded as 61-75%. The “average reduction of steady-state plasma BNP levels, IR versus systemic (IV) administration” value in data set [1] (two dogs, given dose IR versus IV) is recorded as 63%. Further, the “maximum reduction in mean arterial pressure (MAP)” value in data set [2] (IR BNP 0.15 mcg/kg/min) is 15%; in data set [2] (IV BNP 0.15 mcg/kg/min) it was 50%.
